Measured values from PMC4603797, “The Structural Differences between a Glycoprotein Specific F-Box Protein Fbs1 and Its Homologous Protein FBG3” (PLoS ONE, 2015).

How the values were obtained:
[1] = molecular target: ribonuclease B (UniProt P61823); experiment: pull-down; conditions: read off a plot; for percent of parent: parent: est. 100; for other: Relative RNase B binding (% of Skp1–Fbs1 wild type control): parent: n.d.
[2] = molecular target: ribonuclease B (UniProt P61823); experiment: pull-down; conditions: parent: est. 100; read off a plot
[3] = molecular target: T1, Fbs1 SBD A217C (murine, UniProt Q80UW2 117-297, A217C); experiment: pull-down; His-tagged Fbs1 SBDs (15 μg) immobilised on Ni-NTA agarose, incubated with 10.7 μg RNase B at 4°C for 1 h; 20 mM Tris-HCl pH 7.5, 20 mM imidazole, 500 mM NaCl; SDS-PAGE, CBB staining, densitometry; conditions: both partners purified
T1 construct: Fbs1/FBXO2, murine, SBD residues 117-297; Made with the KOD-Plus Mutagenesis kit; source: E. coli (pET15b), purified (Ni-NTA, gel filtration)
T1 sequence (looked up): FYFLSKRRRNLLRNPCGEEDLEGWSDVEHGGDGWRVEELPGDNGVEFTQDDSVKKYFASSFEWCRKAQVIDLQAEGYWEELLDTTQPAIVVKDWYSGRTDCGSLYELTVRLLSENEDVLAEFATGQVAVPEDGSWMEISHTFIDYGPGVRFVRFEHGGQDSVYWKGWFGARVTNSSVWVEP

[4] = molecular target: T2, Fbs1 SBD L220K (murine, UniProt Q80UW2 117-297, L220K); experiment: as above; conditions: both partners purified
T2 construct: Fbs1/FBXO2, murine, SBD residues 117-297; Made with the KOD-Plus Mutagenesis kit; source: E. coli (pET15b), purified (Ni-NTA, gel filtration)
T2 sequence (looked up): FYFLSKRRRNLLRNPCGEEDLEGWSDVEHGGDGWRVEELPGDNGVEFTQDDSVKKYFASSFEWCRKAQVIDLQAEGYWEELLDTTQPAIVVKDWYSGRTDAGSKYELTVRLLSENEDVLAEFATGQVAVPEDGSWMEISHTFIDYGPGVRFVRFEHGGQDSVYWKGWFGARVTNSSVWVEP

[5] = molecular target: T3, Fbs1 SBD T215P (murine, UniProt Q80UW2 117-297, T215P); experiment: as above; conditions: both partners purified
T3 construct: Fbs1/FBXO2, murine, SBD residues 117-297; Made with the KOD-Plus Mutagenesis kit; source: E. coli (pET15b), purified (Ni-NTA, gel filtration)
T3 sequence (looked up): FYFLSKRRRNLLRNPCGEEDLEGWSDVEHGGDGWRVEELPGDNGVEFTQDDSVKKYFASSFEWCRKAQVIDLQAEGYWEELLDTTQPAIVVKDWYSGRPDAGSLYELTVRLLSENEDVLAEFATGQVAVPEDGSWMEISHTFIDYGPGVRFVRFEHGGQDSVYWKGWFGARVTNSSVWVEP

[6] = molecular target: T4, SBD of Fbs1 (117–297), wild type (murine, UniProt Q80UW2 117-297); experiment: as above; conditions: both partners purified
T4 construct: In pET15b; also called Fbs1 SBD; Fbs1 wild type; source: E. coli Rosetta (DE3), purified (Ni-NTA, gel filtration)
T4 sequence (looked up): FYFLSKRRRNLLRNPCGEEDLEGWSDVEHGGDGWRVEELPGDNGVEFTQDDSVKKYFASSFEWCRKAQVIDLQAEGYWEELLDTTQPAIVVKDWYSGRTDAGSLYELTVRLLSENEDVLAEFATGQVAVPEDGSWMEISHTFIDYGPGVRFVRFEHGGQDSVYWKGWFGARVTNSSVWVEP

## SBD of Fbs1 (117–297), wild type (from UniProt Q80UW2) loop β2-3 of Fbs1 replaced by that of FBG3
[1]
  percent of parent: 62%

## SBD of Fbs1 (117–297), wild type (from UniProt Q80UW2) loop β5-6 of Fbs1 replaced by that of FBG3
[2]
  percent of parent: 25%
[1]
  percent of parent: 28%

## SBD of Fbs1 (117–297), wild type (from UniProt Q80UW2) loop β9-10 of Fbs1 replaced by that of FBG3
[1]
  percent of parent: 110%

## SBD of Fbs1 (117–297), wild type (from UniProt Q80UW2) loops β2-3/β5-6/β7-8/β9-10 of Fbs1 replaced by those of FBG3
[1]
  percent of parent: 2.5%

## Skp1–FBG3 complex, wild type (His-tagged Skp1) (from UniProt P63208;Q9H4M3) loops β2-3/β5-6/β7-8/β9-10 of FBG3 replaced by those of Fbs1
[1]
  other: Relative RNase B binding (% of Skp1–Fbs1 wild type control): 78%

## SBD of Fbs1 (117–297), wild type (from UniProt Q80UW2) loop β7-8 of Fbs1 replaced by that of FBG3
[1]
  percent of parent: 96%

## SBD of Fbs1 (117–297), wild type (from UniProt Q80UW2) loops β2-3/β5-6 of Fbs1 replaced by those of FBG3
[1]
  percent of parent: 12%

## Skp1–FBG3 complex, wild type (His-tagged Skp1) (from UniProt P63208;Q9H4M3) loops β2-3/β5-6/β7-8 of FBG3 replaced by those of Fbs1
[1]
  other: Relative RNase B binding (% of Skp1–Fbs1 wild type control): 84%

B1: ribonuclease B (enzyme, bovine, UniProt P61823 27-150, looked up)
chain: KETAAAKFERQHMDSSTSAASSSNYCNQMMKSRNLTKDRCKPVNTFVHESLADVQAVCSQKNVACKNGQTNCYQSYSTMSITDCRETGSSKYPNCAYKTTQANKHIIVACEGNPYVPVHFDASV
modifications: a single high-mannose oligosaccharide
notes: ribonuclease B (glycosylated pancreatic ribonuclease), bovine pancreas; The Fbs proteins recognise the N-glycan of this glycoprotein; also called RNase B; source: bought: Sigma Aldrich (from bovine pancreas)
[3]
  binding result: binds
[4]
  binding result: binds
[5]
  binding result: binds
[6]
  binding result: binds
